The record followed here is PMC7374751, “TIMP-3 facilitates binding of target metalloproteinases to the endocytic receptor LRP-1 and promotes scavenging of MMP-1” (Scientific Reports, 2020).

Common to all, as to test: enzyme inhibition kinetics (fluorogenic peptide substrates); apparent Ki; enzyme pre-incubated with TIMP-3 (0.5-100 nM) 1 h at 37 °C, equilibrium rate of substrate hydrolysis; TNC buffer (50 mM Tris-HCl pH 7.5, 150 mM NaCl, 10 mM CaCl2, 0.05% Brij-35, 0.02% NaN3), 37 °C; tight-binding equation
Conditions in all cases: both partners purified

The target in assay [1] is T1, MMP-3 catalytic domain (MMP-3ΔC) (UniProt P08254 100-272).
T1 construct: catalytic domain of MMP-3; pro-domain removed with APMA

The target in assay [2] is T2, FLAG-tagged ADAMTS-4 lacking the C-terminal spacer domain (ADAMTS4-2) (UniProt O75173 213-685).
T2 construct: ADAMTS-4 lacking the C-terminal spacer domain
T2 sequence (looked up): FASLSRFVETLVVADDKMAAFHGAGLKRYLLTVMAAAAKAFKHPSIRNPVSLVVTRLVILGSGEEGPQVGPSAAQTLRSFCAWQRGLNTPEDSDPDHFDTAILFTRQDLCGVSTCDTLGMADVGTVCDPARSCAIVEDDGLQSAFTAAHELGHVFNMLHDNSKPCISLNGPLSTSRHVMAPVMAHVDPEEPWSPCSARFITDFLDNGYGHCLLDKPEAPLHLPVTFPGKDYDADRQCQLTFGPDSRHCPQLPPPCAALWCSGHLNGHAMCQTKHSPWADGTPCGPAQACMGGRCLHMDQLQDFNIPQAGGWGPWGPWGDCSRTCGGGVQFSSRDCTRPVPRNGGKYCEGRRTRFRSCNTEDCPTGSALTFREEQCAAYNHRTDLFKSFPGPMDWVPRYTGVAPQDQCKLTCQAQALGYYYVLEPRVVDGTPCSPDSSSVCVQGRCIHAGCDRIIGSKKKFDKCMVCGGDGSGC

Assay [3] deals with T3, catalytic domain of human MMP-1 (MMP-1ΔC) (human, UniProt P03956 100-269).
T3 construct: catalytic domain of human MMP-1 (lacks the hemopexin domain); pro-domain removed with APMA
T3 sequence (looked up): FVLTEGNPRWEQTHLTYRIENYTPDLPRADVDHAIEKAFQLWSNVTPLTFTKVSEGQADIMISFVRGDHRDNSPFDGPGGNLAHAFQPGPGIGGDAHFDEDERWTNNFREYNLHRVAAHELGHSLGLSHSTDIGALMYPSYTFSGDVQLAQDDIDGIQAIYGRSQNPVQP

For assay [4], the target named is T2, FLAG-tagged ADAMTS-4 lacking the …. The source holds these as a separate data set.

T1 sequence (P08254 100-272, stated change not applied): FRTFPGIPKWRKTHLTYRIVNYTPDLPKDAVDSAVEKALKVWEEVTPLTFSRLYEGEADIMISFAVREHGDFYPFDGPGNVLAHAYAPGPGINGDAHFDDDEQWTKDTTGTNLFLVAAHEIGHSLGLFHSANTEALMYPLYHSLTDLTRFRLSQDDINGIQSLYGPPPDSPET

B1: FLAG-tagged TIMP-3 (natural protein, UniProt P35625 24-211, looked up)
chain: CTCSPSHPQDAFCNSDIVIRAKVVGKKLVKEGPFGTLVYTIKQMKMYRGFTKMPHVQYIHTEASESLCGLKLEVNKYQYLLTGRVYDGKMYTGLCNFVERWDQLTLSQRKGLNYRYHLGCNCKIKSCYYLPCFVTSKNECLWTDMLSNFGYPGYQSKHYACIRQKGGYCSWYRGWAPPDKSIINATDP
notes: also called T3; [35S]TIMP-3
For B1, the Ki in assay [1] was found to be 0.55 nM; in assay [2], 0.124 nM; in assay [3], 1.86 nM; in assay [4], 1.24 nM.
